Results on 1 molecule are retold here after article PMC10306299.

This series concerns the target T1, CytRN (CytR DNA-binding domain) (Escherichia coli, UniProt P0ACN7 1-66).
T1 sequence: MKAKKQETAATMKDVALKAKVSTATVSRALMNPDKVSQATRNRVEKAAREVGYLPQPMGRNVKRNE
The series can be described thus: NMR.

B1: udp half-site DNA (dsDNA)
DNA 1: ATTTATGCAACGCA
DNA 2: TGCGTTGCATAAAT
B1: the binding result is reported as “binds”.
